Measurements as given in patent publication US20260231954A1, “PESTICIDAL ENZYMES FOR USE ON NEMATODES, INSECTS, AND MOLLUSKS” (priority 2023, published 2026).

Tests used:
Format in all cases: in vivo
soybean = experiment: Field trial: Feruloyl Esterase soybean seed treatment, yield; conditions: 1 fl oz/unit on soybean seed; 5 sites
Text: 1 fl oz/unit of Feruloyl Esterase (SEQ ID NO:91) was coated onto soybean seeds treated with Fludioxinil fungicide, metalaxyl fungicide, thiamethoxam […], Seedwork 1037L polymer, and Sensient Red (colorant). A control treatment without esterase enzyme was also created. The seed treated with esterase and control seed was planted in replicated trials distributed across 5 replicated plots with 4 replicates of 30 ft2 each at each site.

corn = experiment: Greenhouse trial: Rhizopus oryzae Esterase corn seed treatment, plant height; conditions: 0.5 fl oz/unit seed treatment, 6049 V2 hybrid corn, plant height day 10, water control = 100%
Method: Rhizopus oryzae Esterase (carboxylesterase, SEQ ID NO:253) was coated onto 6049 V2 hybrid corn seeds. A water only control treatment without esterase enzyme was also created. The seed treated with esterase and control seed was planted in replicated greenhouse trials on promix soil with a fluctuating day/night temperature of 78° F./75° F., and 13 hours of light daily. Plant heights were measured on day 10 for each plant emerged from the soil.

[1] = tested on: Fall armyworm (Spodoptera frugiperda); experiment: Diet-surface overlay (DSO) bioassay on Fall armyworm; conditions: number of individuals, n = 32, 7 days
Method: Diet-surface overlay bioassays are conducted with artificial diet mixes without antibiotics in 1.5 cm^2 cell bioassay trays(s). Artificial diets are commercially available from Southland Products Inc. Diets were prepared by dispersing 0.5 mL of molten diet to each 1.5 cm^2 cell. After solidification, 0.1 mL enzyme treatments were dispersed on top of diet in each cell and the tray was gently rocked in an orbital shaker to spread the liquid uniformly over the diet surface. Trays were placed under clean airflow until the surface of each cell was uniformly dried. One or two 16-cell sections were used per treatment (the number in larvae treated was 16 or 32).
One healthy first instar larva was placed into each treatment cell, each 16-cell section was covered with a re-sealable lid and incubated at 27° C. and light-dark period of 16:8 hrs. After 7 days, and according to the species, the number of individuals in the following developmental categories was recorded.
Negative/untreated controls were treated with filtered water and positive controls were treated with lethal doses of Bacillus thuringiensis subsp. Kurstaki (Btk) spores at 1000 ppm.

[2] = tested on: Garden snails (Cornu aspersum); experiment: Antifeedant and molluscicide bioassay on garden snails (diet consumption, survival, weight gain)
Method: Two-week old garden snails (Cornu aspersum) and full-size black gloss snails (Zonitoides nitidus) were maintained in a semi-darkened tank at 68-70° F. at high humidity, provided with a wet sponge in a petri dish. Snails were transferred to fresh tank every 2-3 days, and they were feed ad libitum with cucumber slices supplemented with calcium carbonate tablets. Individuals were reared in the laboratory for at least a week to fully acclimate to laboratory conditions prior to testing. The individuals ranged between 3 weeks to 2 months old at the time of bioassay.
Filter-sterilized recombinant enzymes including proteases and lipases were prepared as indicated in Example 25. Corresponding controls (e.g., buffer, fermentation of non-recombinant strain, water) were be prepared accordingly. Enzymes were dried by mixing them with Polyvinylpyrrolidone K30 (Thermo Sci Chem, Cat #227545000) at a ratio of 60 mg PVP per mL of enzymes, dispersed on a petri dish and allowed to dry in a bio-safety hood for 24-48 hours.
The treatments were prepared by mixing 0.4 g of dry enzyme and 1 gram of artificial diet mix. The artificial diet mix consisted of flour supplemented with 30 mg sucrose per gram of flour. […]
12 snails were randomly assigned to each treatment, labeled with permanent marker on the top of the shell for identification, and their weight (mg) was recorded before treatment. […] At the time of treatment replacement, treatment consumption, weight, and mortality were recorded.
Acid protease, alkaline protease, aminopeptidase, neutral protease, and keratinase, were prepared as indicated above and their antifeedant and molluscicidal effects were tested. […] The units (U) of enzyme activity was determined as the amount of enzyme required to breakdown 1 μM of substrate per minute. […]
Lipases from Burkholderia cepacia, Pseudomonas fluorescens, porcine pancreas, type II (PPII) were prepared as described above and their antifeedant and molluscicidal effects were tested. […] The units (U) of enzyme activity was determined as the amount of enzyme required to breakdown 1 μM of substrate per minute. […]

[3] = tested on: soybean cyst nematode (SCN, Heterodera glycines); experiment: Soybean cyst nematode reproduction on soybean after seed treatment, controlled environment (cysts per gram of root tissue or per plant); conditions: Table 16
[4] = tested on: SCN juveniles (SCN HG type 1.2.5.7, race 2); experiment: In-vitro plate assay of SCN juvenile viability (difference in percent death); conditions: Table 32, 40 μL per well of each treatment, water only 4%
Method: (§1) SCN eggs were obtained from SCN HG type 1.2.5.7, race 2. Eggs were rinsed 4 times with sterile water. Eggs were transferred to a 6-well plate and resuspended in 5 mL of 3 mM ZnSO4. The plate was sealed with parafilm, covered with aluminum foil to prevent light from entering the plate, and placed in a plate growth chamber at 25° C. and 80% relative humidity. After 6-7 days of incubation, an estimate of hatched SCN juveniles was obtained from the well to determine the overall number of juveniles per 10 μL. The concentration of the hatchery solution was adjusted until it consisted of 20-30 juveniles per 10 μL.
Potato dextrose agar media containing chloramphenicol and chlortetracycline was prepared and added to sterile twenty-four-well cell culture plates (1 mL per well). The plates were divided according to the pre-determined N-value for each treatment (N=12-24). Each treatment being tested was added to the agar surface within each well at a rate of 40 μL per well. Without allowing the treatments to dry, 10 μL of the prepared nematode mixture was added to the agar surface within each well.
To quantify the treatments' effects on nematode viability, the nematodes were examined under a dissecting microscope at 20× magnification. Initial (TO) values for the number of live juveniles, number of dead juveniles and total number of juveniles were recorded immediately after preparation of each well. The plates were then wrapped in parafilm around the open edge, encased in aluminum foil, and placed in secondary containment. The secondary containment was placed in a plant growth chamber at 25° C. and 80% relative humidity. At approximately 24 hours post addition of juveniles, the plates were evaluated, and the number of live juveniles, dead juveniles and total number of juveniles were recorded (T24).
The difference in percent death at T0 vs T24 was calculated by subtracting the percent dead at TO [(#dead juveniles/total #juveniles)×100] from the percent dead at T24 [(#dead juveniles/#total juveniles originally present)×100]. […] If the ANOVA indicated a significant difference existed among treatments, Tukey's HSD post hoc test was used to perform a pairwise contrast between each set of treatments. Different letters denote statistically significant results at P<0.05.
as §1, with “from” for “from SCN”, “rinsed four” for “rinsed 4”, “and 80-90%” for “and 80%”, “from each” for “from the”
Potato dextrose agar media containing chloramphenicol and chlortetracycline was prepared and added to sterile twenty-four-well cell culture plates (1 mL per well). The plates were divided according to the pre-determined N-value for each treatment (N=24). […]
To quantify the treatments' effects on nematode viability, the nematodes were examined under a dissecting microscope at 20× magnification. Initial (TO) values for the number of live juveniles, number of dead juveniles and total number of juveniles were recorded. […]

B1: Feruloyl Esterase (SEQ ID NO:91): Beauveria bassiana Feruloyl Esterase A2 (protein, listed as Beauveria bassiana)
chain: MLSLLGFLGFAALAAAAPVRDQAFIPRTLVNRSIYDKLALYAGYTQLSNTGICARPSVPGVLYQFVESKDTDTQVSIWKVDAYKEFVIAIPGTSSARDNETNFDFALVPYQADNVRCPSCRVHKGYQAAWRSVMKQVQGNLTNLLGIHPDYTVTLTGHSLGGGLVSIAFPTLRNGPYNVTQAYTYGQPRAGNGAFANYVDGISGASDKEAGIFYRVTHANDLIPKLPPGIFGYKHSRTEYWESKPSMDNAASTYRCYGQEPADCNRNATGIDSKVHVTYAGMNVTCNKS
modifications: Feruloyl Esterase A2
- yield vs base seed treatment package (in words) (soybean): increased the yield

B2: Esterase from Rhizopus oryzae: Rhizopus oryzae Esterase (carboxylesterase, SEQ ID NO:253) (protein, listed as Rhizopus oryzae)
chain: SDGGKVVAATTAQIQEFTKYAGIAATAYCRSVVPGNKWDCVQCQKWVPDGKIITTFTSLLSDTNGYVLRSDKQKTIYLVFRGTNSFRSAITDIVFNFSDYKPVKGAKVHAGFLSSYEQVVNDYFPVVQEQLTANPTYKVIVTGHSLGGAQALLAGMDLYQREPRLSPKNLSIFTVGGPRVGNPTFAYYVESTGIPFQRTAHKRDIVPHVPPQSFGFLHPGVESWIKSGTSNVQICTSEIETKDCSNSIVPFTSILDHLSYFDINEGSCL
modifications: Rhizopus cf. oryzae
- Height as % of Control (corn): 103.7%
- Height as % of Control (corn; listed as Rhizopus oryzae Esterase): increase the growth rate of corn

B3: PpII Lipase: free lipase from porcine pancreas Type II (PpII) (protein, UniProt P00591 1-450, looked up)
Pancreatic triacylglycerol …: SEVCFPRLGCFSDDAPWAGIVQRPLKILPWSPKDVDTRFLLYTNQNQNNYQELVADPSTITNSNFRMDRKTRFIIHGFIDKGEEDWLSNICKNLFKVESVNCICVDWKGGSRTGYTQASQNIRIVGAEVAYFVEVLKSSLGYSPSNVHVIGHSLGSHAAGEAGRRTNGTIERITGLDPAEPCFQGTPELVRLDPSDAKFVDVIHTDAAPIIPNLGFGMSQTVGHLDFFPNGGKQMPGCQKNILSQIVDIDGIWEGTRDFVACNHLRSYKYYADSILNPDGFAGFPCDSYNVFTANKCFPCPSEGCPQMGHYADRFPGKTNGVSQVFYLNTGDASNFARWRYKVSVTLSGKKVTGHILVSLFGNEGNSRQYEIYKGTLQPDNTHSDEFDSDVEVGDLQKVKFIWYNNNVINPTLPRVGASKITVERNDGKVYDFCSQETVREEVLLTLNPC
- Dead Larva ([1]; Table 46, lipases): 0
- Larva Stage I ([1]; Table 46): 2
- Larva Stage II ([1]; Table 46): 5
- Larva Stage III ([1]; Table 46): 15
- Larva Stage IV ([1]; Table 46): 10
- Diet consumption ([2]; lipases, garden snail, n = 12, 12 days, dose per treatment in U/gr diet): 0.82 gr
- Dead Snails ([2]; lipases, garden snail, number of n = 12, 12 days): 0
- food consumption (in words) ([2]; text to Table 62, lipases in artificial diet, n = 12, 12 days): consistent reduction in food consumption

B4: Pseudomonas sp. esterase (SEQ ID NO: 248): Pseudomonas sp. Esterase (protein, listed as Pseudomonas sp.)
chain: MTEPLILQPVKPADACVIWLHGLGADRYDFLPVAEALQEILLSTRFVLPQAPTRPVTINGGYAMPSWYDIKAMSPARAIDRDELEASADRIIELIEEQRSSGIDASRIFLAGFSQGGAVVYHTAFLKWQGPLGGVLALSTYAPTFSDELELSASQQRIPVLSLHGQFDNVVQNSMGRTAYEYLKAHGVTVTWQEYPMEHEVLPEEIRDIGTWLSERLR
- % Comparison to Control (figure in parentheses) ([3]; change vs base control): −10%
- Average cysts per g of root tissue ([3]; free enzyme or 4x concentrate seed treatment, soybean 2830E3): 220.2 cysts per g of root tissue
- Difference in Percent Death of Nematodes for 0 to 24 Hours [4]: 22%
- Difference in Percent Death of Nematodes for 0 to 24 Hours ([4]; listed as Pseudomonas sp. esterase free enzyme (SEQ ID NO: 248)): 22%
